# Measurements: the Immune Epitope Database (IEDB)
# Experiments:
# Assay in all cases: IEDB peptide-MHC binding, purified MHC/competitive/radioactivity; ≥ and ≤ were set here for values at or beyond the usual limits of such assays
# Conditions in all cases: source organism: Bordetella pertussis
# HLA-B*53:01 = target: HLA-B*53:01
# HLA-B*57:01 = target: HLA-B*57:01
# HLA-B*35:01 = target: HLA-B*35:01
# HLA-A*02:01 = target: HLA-A*02:01
# HLA-B*44:03 = target: HLA-B*44:03
# HLA-B*07:02 = target: HLA-B*07:02
sequence,measurement,setting,value
AIRVGRGAR,IC50,HLA-B*53:01,52.7 µM
AQQLKQADR,IC50,HLA-B*53:01,47.2 µM
DNEGKMESN,IC50,HLA-B*57:01,≥ 70.4 µM
EVAKVEVVP,IC50,HLA-B*35:01,69.9 µM
FVWYVDTVI,IC50,HLA-A*02:01,0.802 µM
same,IC50,HLA-B*53:01,30.2 µM
GIGALKAGA,IC50,HLA-A*02:01,69.4 µM
ILLENPAAE,IC50,HLA-A*02:01,18.7 µM
LPLKANPMH,IC50,HLA-B*53:01,≥ 78.2 µM
LPVSLTALD,IC50,HLA-B*35:01,7.12 µM
same,IC50,HLA-B*53:01,23.1 µM
MDAKGGTLL,IC50,HLA-B*35:01,69.9 µM
PELGAAIRV,IC50,HLA-B*44:03,6.51 µM
QPLPPRPVA,IC50,HLA-B*07:02,8.37 µM
RGSAATFTL,IC50,HLA-B*57:01,10.7 µM
SLFAPHGNV,IC50,HLA-A*02:01,7.09 µM
TFEGKPALE,IC50,HLA-B*53:01,46 µM
TRQGIMDQY,IC50,HLA-B*44:03,63.9 µM
TTEYPNARY,IC50,HLA-B*44:03,63.5 µM
VPASGAPAA,IC50,HLA-B*35:01,4.66 µM
VSSPPPVSV,IC50,HLA-A*02:01,49.5 µM
VVDGPPSRP,IC50,HLA-B*53:01,69.9 µM
